Consider 1 substance from patent publication US20200347144A1.

Test [1] has as its target monkey 4-1BB-his protein (monkey). In words: ELISA, coated monkey 4-1BB-his; Ab 0.08 ug/ml.
For test [2] the target is unchanged. In words: ELISA, coated monkey 4-1BB-his; Ab 10 ug/ml.
For test [3] the target is unchanged. In words: ELISA, coated monkey 4-1BB-his; Ab 0.0006 ug/ml.
Test [4] has the same target. In words: ELISA, coated monkey 4-1BB-his; Ab 0.4 ug/ml.
The target in test [5] is hFc-tagged human 4-1BB extracellular domain protein (4-1BB-hFc) (human) (UniProt Q07011). As to the kind of experiment: ELISA, coated 4-1BB; Ab concentration not given.
Chain of hFc-tagged human 4-1BB extracellular domain protein (4-1BB-hFc) (human) (Q07011 24-186 limits assumed): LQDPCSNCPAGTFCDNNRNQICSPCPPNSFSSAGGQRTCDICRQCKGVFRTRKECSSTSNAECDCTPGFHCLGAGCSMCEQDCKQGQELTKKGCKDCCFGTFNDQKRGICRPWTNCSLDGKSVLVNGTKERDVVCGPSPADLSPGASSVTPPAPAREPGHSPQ
The target in test [6] is monkey 4-1BB-his protein (monkey). As to the kind of experiment: ELISA, coated monkey 4-1BB-his; Ab 2 ug/ml.
The target is the same in test [7]. As to the kind of experiment: ELISA, coated monkey 4-1BB-his; Ab 0.0032 ug/ml.
The target in test [8] is GITR. In words: ELISA, coated GITR; Ab concentration not given.
Chain of GITR (Q9Y5U5 26-162): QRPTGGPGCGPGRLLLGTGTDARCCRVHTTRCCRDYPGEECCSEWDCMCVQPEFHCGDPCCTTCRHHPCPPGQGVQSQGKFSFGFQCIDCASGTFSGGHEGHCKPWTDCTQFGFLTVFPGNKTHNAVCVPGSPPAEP
The target in test [9] is monkey 4-1BB-his protein (monkey). As to the kind of experiment: ELISA, coated monkey 4-1BB-his; Ab 0.016 ug/ml.
For test [10] the target is unchanged. As to the kind of experiment: ELISA, coated monkey 4-1BB-his; Ab 0.0001 ug/ml.
Test [11] has as its target OX40. As to the kind of experiment: ELISA, coated OX40; Ab concentration not given.

Chain of OX40 (P43489 29-214): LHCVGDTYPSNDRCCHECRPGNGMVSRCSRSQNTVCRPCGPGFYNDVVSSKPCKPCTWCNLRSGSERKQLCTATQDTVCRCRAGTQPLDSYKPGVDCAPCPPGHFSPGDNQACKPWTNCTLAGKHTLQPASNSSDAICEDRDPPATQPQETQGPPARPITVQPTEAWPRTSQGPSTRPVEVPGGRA

For the substance IgG control (human IgG) (antibody), the OD450 nm came to 0.07 OD450 nm in test [1]; 0.07 OD450 nm in test [2]; 0.07 OD450 nm in [3]; 0.07 OD450 nm in test [4]; 0.36 OD450 nm in test [5]; 0.07 OD450 nm in [6]. The OD450 nm was determined as 0.07 OD450 nm in [7]; 0.24 OD450 nm in test [8]; 0.07 OD450 nm in test [9]; 0.07 OD450 nm in [10]; 0.32 OD450 nm in test [11].
